Values of other authors in PMC2715106.

Columns and labels:
[1] = molecular target: core RNA polymerase (Escherichia coli) (UniProt P0A7Z4); assay: SEC
[2] = molecular target: core RNA polymerase (Escherichia coli) (UniProt P0A7Z4); assay: in vitro transcription

sigma32, sequence (P0AGB3 whole entry): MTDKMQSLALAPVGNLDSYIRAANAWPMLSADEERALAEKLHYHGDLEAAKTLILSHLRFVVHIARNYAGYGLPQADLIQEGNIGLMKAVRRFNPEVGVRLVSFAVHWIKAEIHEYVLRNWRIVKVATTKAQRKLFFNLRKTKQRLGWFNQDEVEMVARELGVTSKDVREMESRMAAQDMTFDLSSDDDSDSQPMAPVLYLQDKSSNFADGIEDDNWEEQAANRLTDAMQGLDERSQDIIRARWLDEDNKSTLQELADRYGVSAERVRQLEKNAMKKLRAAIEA

Kd [1]: 1.24 nM
Kd [2]: 1 nM
Substance: sigma32 (from UniProt P0AGB3)
